Test results as given in paper doi:10.1101/2021.04.25.441346 (bioRxiv, 2021).

Target: T1, GST-AFF1 (AUXIN RESPONSE FACTOR F-BOX1, At3g49150) (Arabidopsis thaliana, UniProt Q9M3B7 1-630)
T1 sequence (looked up): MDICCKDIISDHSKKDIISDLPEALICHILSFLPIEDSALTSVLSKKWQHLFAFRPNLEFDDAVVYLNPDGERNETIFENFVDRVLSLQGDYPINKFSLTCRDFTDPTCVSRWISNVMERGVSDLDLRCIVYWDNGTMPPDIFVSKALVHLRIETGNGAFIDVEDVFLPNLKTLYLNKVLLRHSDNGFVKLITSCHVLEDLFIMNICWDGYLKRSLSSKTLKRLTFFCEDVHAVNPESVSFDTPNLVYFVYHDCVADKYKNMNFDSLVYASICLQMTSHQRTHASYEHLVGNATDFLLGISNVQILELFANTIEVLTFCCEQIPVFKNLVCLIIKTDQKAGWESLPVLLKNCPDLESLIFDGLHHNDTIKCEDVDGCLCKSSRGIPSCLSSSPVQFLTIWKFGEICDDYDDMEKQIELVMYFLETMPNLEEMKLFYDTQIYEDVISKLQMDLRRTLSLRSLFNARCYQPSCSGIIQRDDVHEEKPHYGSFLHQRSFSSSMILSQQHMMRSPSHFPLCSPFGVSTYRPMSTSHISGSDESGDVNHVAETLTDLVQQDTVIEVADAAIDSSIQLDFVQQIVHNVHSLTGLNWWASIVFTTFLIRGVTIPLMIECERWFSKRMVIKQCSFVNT
Assay: pull-down

- binding result: binds
B1: His-ASK1 (ARABIDOPSIS SKP1-LIKE 1) (natural protein, Arabidopsis thaliana, UniProt Q39255 1-160, looked up)
chain: MSAKKIVLKSSDGESFEVEEAVALESQTIAHMVEDDCVDNGVPLPNVTSKILAKVIEYCKRHVEAAASKAEAVEGAATSDDDLKAWDADFMKIDQATLFELILAANYLNIKNLLDLTCQTVADMIKGKTPEEIRTTFNIKNDFTPEEEEEVRRENQWAFE
